# T1: G8^C: Gp41.8^C-[C-extein]linker-Trx-EFRSHHHHHH fusion protein
# T1 chain: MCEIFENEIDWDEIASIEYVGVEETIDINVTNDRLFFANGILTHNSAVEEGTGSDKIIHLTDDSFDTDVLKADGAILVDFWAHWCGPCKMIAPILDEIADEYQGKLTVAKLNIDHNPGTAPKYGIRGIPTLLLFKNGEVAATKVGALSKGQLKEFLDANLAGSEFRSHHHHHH
# T2: G1^C: Gp41.1^C-[C-extein]linker-Trx-EFRSHHHHHH fusion protein
# T2 chain: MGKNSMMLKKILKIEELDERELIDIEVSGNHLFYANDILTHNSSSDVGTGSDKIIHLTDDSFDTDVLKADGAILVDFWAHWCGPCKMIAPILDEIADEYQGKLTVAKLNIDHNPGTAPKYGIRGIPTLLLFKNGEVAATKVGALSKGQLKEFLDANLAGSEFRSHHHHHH
# T3: I1^C: IMPDH1^C-[C-extein]linker-Trx-EFRSHHHHHH fusion protein
# T3 chain: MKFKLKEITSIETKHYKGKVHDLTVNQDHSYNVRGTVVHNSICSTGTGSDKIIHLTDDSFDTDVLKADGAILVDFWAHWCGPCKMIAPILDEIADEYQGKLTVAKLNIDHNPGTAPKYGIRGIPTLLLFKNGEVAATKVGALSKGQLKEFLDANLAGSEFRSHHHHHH
# T4: N1^C: NrdJ1^C-[C-extein]linker-Trx-EFRSHHHHHH fusion protein
# T4 chain: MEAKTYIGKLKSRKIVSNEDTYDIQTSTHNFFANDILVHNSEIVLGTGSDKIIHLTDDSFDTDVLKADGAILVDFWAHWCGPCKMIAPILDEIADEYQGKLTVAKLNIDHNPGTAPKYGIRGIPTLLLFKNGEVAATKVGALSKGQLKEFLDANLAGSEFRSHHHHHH
# B1: G8^N: StreptagII-gpD-linker[N-extein]-Gp41.8^N-GGHHHHHH fusion protein (other)
# chain: MASWSHPQFEKASKETFTHYQPQGNSDPAHTATAPGGLSAKAPAMTPLMLDTSSRKLVAWDGTTDGAAVGILAVAADQTSTTLTFYKSGTFRYEDVLWPEAASDETKKRTAFAGTAISIVGSSQLNRCLSLDTMVVTNGKAIEIRDVKVGDWLESECGPVQVTEVLPIIKQPVFEIVLKSGKKIRVSANHKFPTKDGLKTINSGLKVGDFLRSRAKGGHHHHHH
# B2: G8^N(C1A): StreptagII-gpD-linker[N-extein]-Gp41.8^N(C1A)-GGHHHHHH fusion protein (other)
# chain: MASWSHPQFEKASKETFTHYQPQGNSDPAHTATAPGGLSAKAPAMTPLMLDTSSRKLVAWDGTTDGAAVGILAVAADQTSTTLTFYKSGTFRYEDVLWPEAASDETKKRTAFAGTAISIVGSSQLNRALSLDTMVVTNGKAIEIRDVKVGDWLESECGPVQVTEVLPIIKQPVFEIVLKSGKKIRVSANHKFPTKDGLKTINSGLKVGDFLRSRAKGGHHHHHH
# B3: G1^N: StreptagII-gpD-linker[N-extein]-Gp41.1^N-GGHHHHHH fusion protein (other)
# chain: MASWSHPQFEKASKETFTHYQPQGNSDPAHTATAPGGLSAKAPAMTPLMLDTSSRKLVAWDGTTDGAAVGILAVAADQTSTTLTFYKSGTFRYEDVLWPEAASDETKKRTAFAGTAISIVGSTRSGYCLDLKTQVQTPQGMKEISNIQVGDLVLSNTGYNEVLNVFPKSKKKSYKITLEDGKEIICSEEHLFPTQTGEMNISGGLKEGMCLYVKEGGHHHHHH
# B4: G1^N(C1A): StreptagII-gpD-linker[N-extein]-Gp41.1^N(C1A)-GGHHHHHH fusion protein (other)
# chain: MASWSHPQFEKASKETFTHYQPQGNSDPAHTATAPGGLSAKAPAMTPLMLDTSSRKLVAWDGTTDGAAVGILAVAADQTSTTLTFYKSGTFRYEDVLWPEAASDETKKRTAFAGTAISIVGSTRSGYALDLKTQVQTPQGMKEISNIQVGDLVLSNTGYNEVLNVFPKSKKKSYKITLEDGKEIICSEEHLFPTQTGEMNISGGLKEGMCLYVKEGGHHHHHH
# B5: I1^N: StreptagII-gpD-linker[N-extein]-IMPDH1^N-GGHHHHHH fusion protein (other)
# chain: MASWSHPQFEKASKETFTHYQPQGNSDPAHTATAPGGLSAKAPAMTPLMLDTSSRKLVAWDGTTDGAAVGILAVAADQTSTTLTFYKSGTFRYEDVLWPEAASDETKKRTAFAGTAISIVGSGIGGGCFVPGTLVNTENGLKKIEEIKVGDKVFSHTGKLQEVVDTLIFDRDEEIISINGIDCTKNHEFYVIDKENANRVNEDNIHLFARWVHAEELDMKKHLLIELEGGHHHHHH
# B6: I1^N(C1A): StreptagII-gpD-linker[N-extein]-IMPDH1^N(C1A)-GGHHHHHH fusion protein (other)
# chain: MASWSHPQFEKASKETFTHYQPQGNSDPAHTATAPGGLSAKAPAMTPLMLDTSSRKLVAWDGTTDGAAVGILAVAADQTSTTLTFYKSGTFRYEDVLWPEAASDETKKRTAFAGTAISIVGSGIGGGAFVPGTLVNTENGLKKIEEIKVGDKVFSHTGKLQEVVDTLIFDRDEEIISINGIDCTKNHEFYVIDKENANRVNEDNIHLFARWVHAEELDMKKHLLIELEGGHHHHHH
# B7: N1^N: StreptagII-gpD-linker[N-extein]-NrdJ1^N-GGHHHHHH fusion protein (other)
# chain: MASWSHPQFEKASKETFTHYQPQGNSDPAHTATAPGGLSAKAPAMTPLMLDTSSRKLVAWDGTTDGAAVGILAVAADQTSTTLTFYKSGTFRYEDVLWPEAASDETKKRTAFAGTAISIVGSGTNPCCLVGSSEIITRNYGKTTIKEVVEIFDNDKNIQVLAFNTHTDNIEWAPIKAAQLTRPNAELVELEINTLHGVKTIRCTPDHPVYTKNRDYVRADELTDDDELVVAIGGHHHHHH
# B8: N1^N(C1A): StreptagII-gpD-linker[N-extein]-NrdJ1^N(C1A)-GGHHHHHH fusion protein (other)
# chain: MASWSHPQFEKASKETFTHYQPQGNSDPAHTATAPGGLSAKAPAMTPLMLDTSSRKLVAWDGTTDGAAVGILAVAADQTSTTLTFYKSGTFRYEDVLWPEAASDETKKRTAFAGTAISIVGSGTNPCALVGSSEIITRNYGKTTIKEVVEIFDNDKNIQVLAFNTHTDNIEWAPIKAAQLTRPNAELVELEINTLHGVKTIRCTPDHPVYTKNRDYVRADELTDDDELVVAIGGHHHHHH
# Key:
# Assay in all cases: cell-based or functional assay
# [1] = target: T1, G8^C: …
# [2] = target: T1, G8^C: …
# [3] = target: T1, G8^C: …
# [4] = target: T2, G1^C: …
# [5] = target: T2, G1^C: …
# [6] = target: T2, G1^C: …
# [7] = target: T3, I1^C: …
# [8] = target: T3, I1^C: …
# [9] = target: T3, I1^C: …
# [10] = target: T4, N1^C: …
# [11] = target: T4, N1^C: …
# [12] = target: T4, N1^C: …
binder,measurement,setting,value
B1,"splice product formation at 5 minutes, 25 °C",[1],~90%
same,"trans-splicing speed, fold faster than Npu DnaE, 25 °C",[1],6 fold
same,"trans-splicing first order rate constant k, 25 °C",[2],0.017 s⁻¹
same,"trans-splicing t1/2, 25 °C",[2],40 s
B2,"C-terminal cleavage k, 25 °C",[3],9.5e-05 s⁻¹
same,"C-terminal cleavage t1/2, 25 °C",[3],122 min
B3,"splice product formation at 5 minutes, 25 °C",[4],~90%
same,"trans-splicing activity in 4 M urea after 1 hour, relative to optimized conditions",[4],~50%
same,"trans-splicing activity, fold faster than Npu DnaE, 12 °C",[4],6 fold
same,"trans-splicing activity, fold faster than Npu DnaE, 25 °C",[4],15 fold
same,"trans-splicing activity, fold faster than Npu DnaE, 37 °C",[4],10 fold
same,"trans-splicing speed, fold faster than Npu DnaE, 25 °C",[4],31 fold
same,"trans-splicing first order rate constant k, 25 °C",[5],0.057 s⁻¹
same,"trans-splicing t1/2, 25 °C",[5],12 s
B4,"C-terminal cleavage k, 25 °C",[6],0.000595 s⁻¹
same,"C-terminal cleavage t1/2, 25 °C",[6],19.4 min
B5,"splice product formation at 5 minutes, 25 °C",[7],~90%
same,"trans-splicing speed, fold faster than Npu DnaE, 25 °C",[7],7 fold
same,"trans-splicing first order rate constant k, 25 °C",[8],0.02 s⁻¹
same,"trans-splicing t1/2, 25 °C",[8],34 s
B6,"C-terminal cleavage k, 25 °C",[9],0.000365 s⁻¹
same,"C-terminal cleavage t1/2, 25 °C",[9],31.6 min
B7,"splice product formation at 5 minutes, 25 °C",[10],~90%
same,"trans-splicing speed, fold faster than Npu DnaE, 25 °C",[10],9 fold
same,"trans-splicing first order rate constant k, 25 °C",[11],0.062 s⁻¹
same,"trans-splicing t1/2, 25 °C",[11],20 s
B8,"C-terminal cleavage k, 25 °C",[12],0.00027 s⁻¹
same,"C-terminal cleavage t1/2, 25 °C",[12],43 min

# — patent US20150232507A1 (ERA BIOTECH S A, published 2015)
